Assay results: patent publication US20260144872A1
Where “and” joins values, the source holds several entries; their conditions need not be identical. Identical values can stand only once.

Biological target: CD16 (activating FcγRIIIa, CD16a) on NK cells (UniProt P08637)
Assay: cell-based or functional assay

Chain of UniProt P08637 (P08637 17-254 limits assumed): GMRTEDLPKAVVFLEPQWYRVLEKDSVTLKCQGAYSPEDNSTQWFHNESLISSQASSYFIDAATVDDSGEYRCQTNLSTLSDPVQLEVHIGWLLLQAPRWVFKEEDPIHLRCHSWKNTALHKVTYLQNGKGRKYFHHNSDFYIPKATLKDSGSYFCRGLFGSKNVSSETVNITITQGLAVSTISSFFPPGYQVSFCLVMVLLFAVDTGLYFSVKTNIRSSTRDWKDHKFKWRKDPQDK

CD16 positive % on NK cells after PMA (1 ug/mL, 1 hour), ADAM17 edited cells | CD16 positive % on NK cells after PMA (1 ug/mL, 1 hour), EP controls (ADAM17 intact) [%] | Substance
72.4% and 92% |  | a disintegrin and metalloproteinase domain-containing protein 17 (ADAM17) (from UniProt P78536 215-824)
 | 0.62 to 6 | a disintegrin and metalloproteinase domain-containing protein 17 (ADAM17) (from UniProt P78536 215-824) (enzyme)
